The labels stand for the following.
B1: CDC34 (parent)
chain: GGYFKARLKFPIDYPYSPPAFRFL
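Also: lentivirally expressed fusions sorted by FACS into six bins by GFP to DsRed ratio, PSI derived from sequencing read proportions per bin multiplied by bin number.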

The data set covers variants of B1. Description: protein stability index of a GFP-peptide fusion (GPS, HEK-293T) (PSI 1-6); higher = more stable. The following applies: c terminus: a fixed tail appended.
Consider GGYFKARLKQPIDYPYSPPAFRFL [F10Q], for which the protein stability index was 1.76.

In the case of GGYFKARLKHPIDYPYSPPAFRFL [F10H], the protein stability index was determined as 3.49.

GGYFKARLKDPIDYPYSPPAFRFL [F10D]: the protein stability index came to 3.29.

As for GGYFKARLKEPIDYPYSPPAFRFL [F10E], the protein stability index worked out at 2.66.

For GGYFKARLKGPIDYPYSPPAFRFL [F10G], the protein stability index came out at 2.75.

For GGYFKARLKVPIDYPYSPPAFRFL [F10V], the protein stability index was determined as 2.97.

GGYFKARLKIPIDYPYSPPAFRFL [F10I]: the protein stability index amounted to 2.44.

Regarding GGYFKARLKFPIDYPNSPPAFRFL [Y16N], the protein stability index came out at 2.71.

In the case of GGYFKARLKFPIDYPWSPPAFRFL [Y16W], the protein stability index was 2.43.

As for GGYFKARLKFPIDYPKSPPAFRFL [Y16K], the protein stability index was determined as 3.31.

Consider GGYFKARLKFPIDYPISPPAFRFL [Y16I], for which the protein stability index turned out to be 3.09.

GGYFKARLKFPIDYPESPPAFRFL [Y16E]: the protein stability index came out at 2.23.

Turning to GGYFKARLKFPIDYPLSPPAFRFL [Y16L], the protein stability index is 2.18.

Regarding GGYFKARLKFPIDYPTSPPAFRFL [Y16T], the protein stability index is 2.81.

With GGYFKARLKFPIDYPVSPPAFRFL [Y16V], the protein stability index is 3.55.

Turning to GGYFKARLKFPIDYPMSPPAFRFL [Y16M], the protein stability index is 1.99.

As to GGYFKARLKFPIDYPSSPPAFRFL [Y16S], the protein stability index turned out to be 2.6.

In the case of GGYFKQRLKFPIDYPYSPPAFRFL [A6Q], the protein stability index was determined as 1.71.

Regarding GGYFKWRLKFPIDYPYSPPAFRFL [A6W], the protein stability index was 3.16.

Consider GGYFKIRLKFPIDYPYSPPAFRFL [A6I], for which the protein stability index was 1.94.

With GGYFKFRLKFPIDYPYSPPAFRFL [A6F], the protein stability index is 3.63.

Regarding GGYFKDRLKFPIDYPYSPPAFRFL [A6D], the protein stability index was 2.1.

For GGYFKMRLKFPIDYPYSPPAFRFL [A6M], the protein stability index came to 3.74.

Take GGYFKKRLKFPIDYPYSPPAFRFL [A6K]: the protein stability index turned out to be 3.08.

Consider GGYFKHRLKFPIDYPYSPPAFRFL [A6H], for which the protein stability index is 3.08.

Consider GGYFKPRLKFPIDYPYSPPAFRFL [A6P], for which the protein stability index amounted to 2.13.

Regarding GGYFKSRLKFPIDYPYSPPAFRFL [A6S], the protein stability index is 2.47.

Take GGYFKARLKFPIDGPYSPPAFRFL [Y14G]: the protein stability index is 1.88.

Regarding GGYFKARLKFPIDMPYSPPAFRFL [Y14M], the protein stability index stood at 2.8.

Regarding GGYFKARLKFPIDKPYSPPAFRFL [Y14K], the protein stability index is 2.75.

Consider GGYFKARLKFPIDIPYSPPAFRFL [Y14I], for which the protein stability index is 2.16.

In the case of GGYFKARLKFPIDQPYSPPAFRFL [Y14Q], the protein stability index turned out to be 1.82.

With GGYFKARLKFPIDCPYSPPAFRFL [Y14C], the protein stability index worked out at 2.57.

In the case of GGYFKARLKFPIDYPYSPYAFRFL [P19Y], the protein stability index is 4.32.

As to GGYFKARLKFPIDYPYSPIAFRFL [P19I], the protein stability index was determined as 2.56.

For the variant GGYFKARLKFPIDYPYSPDAFRFL [P19D], the protein stability index was determined as 2.21.

Turning to GGYFKARLKFPIDYPYSPFAFRFL [P19F], the protein stability index is 2.96.

For the variant GGYFKARLKFPIDYPYSPWAFRFL [P19W], the protein stability index was 3.02.

Consider GGYFKARLKFPIDYPYSPCAFRFL [P19C], for which the protein stability index amounted to 3.03.

For GGYFKARLKFPIDYPYSPRAFRFL [P19R], the protein stability index was 3.69.

As to GGYFKARLKFPIDYPYSPNAFRFL [P19N], the protein stability index turned out to be 3.27.

For the variant GGYFKARLKFPIDYPYSPVAFRFL [P19V], the protein stability index worked out at 2.35.

For the variant GGYYKARLKFPIDYPYSPPAFRFL [F4Y], the protein stability index was determined as 2.38.

With GGYHKARLKFPIDYPYSPPAFRFL [F4H], the protein stability index stood at 1.96.

In the case of GGYSKARLKFPIDYPYSPPAFRFL [F4S], the protein stability index is 3.07.

Consider GGYEKARLKFPIDYPYSPPAFRFL [F4E], for which the protein stability index was 2.79.

For GGYVKARLKFPIDYPYSPPAFRFL [F4V], the protein stability index was found to be 3.17.

As to GGYTKARLKFPIDYPYSPPAFRFL [F4T], the protein stability index worked out at 1.94.

Consider GGYFKAREKFPIDYPYSPPAFRFL [L8E], for which the protein stability index was determined as 2.3.

With GGYFKARKKFPIDYPYSPPAFRFL [L8K], the protein stability index was determined as 2.48.

GGYFKARQKFPIDYPYSPPAFRFL [L8Q]: the protein stability index was 2.35.

As to GGYFKARIKFPIDYPYSPPAFRFL [L8I], the protein stability index came to 3.42.

GGYFKARVKFPIDYPYSPPAFRFL [L8V]: the protein stability index was 2.53.

On to GGYFKARDKFPIDYPYSPPAFRFL [L8D], for which the protein stability index came out at 2.24.

For GGYFKARGKFPIDYPYSPPAFRFL [L8G], the protein stability index worked out at 3.75.

For the variant GGYFKARLKFPIDYPYSPPAFRFF [L24F], the protein stability index worked out at 2.89.

In the case of GGYFKARLKFPIDYPYSPPAFRFM [L24M], the protein stability index stood at 2.76.

As to GGYFKARLKFPIDYPYSPPAFRFK [L24K], the protein stability index is 3.77.

In the case of GGYFKARLKFPIDYPYSPPAFRFV [L24V], the protein stability index was 3.43.

As to GGYFKARLKFPIDYPYSPPAFRFN [L24N], the protein stability index is 3.21.

In the case of GGYFKARLKFPIDYPYSPPAFRFR [L24R], the protein stability index was determined as 3.94.

As for GGYFKARLKFPIDYPYSPPAFRFG [L24G], the protein stability index was 2.44.

With GGYFKARLKFPIDYPYSWPAFRFL [P18W], the protein stability index stood at 2.38.

Regarding GGYFKARLKFPIDYPYSFPAFRFL [P18F], the protein stability index amounted to 2.42.

With GGYFKARLKFPIDYPYSCPAFRFL [P18C], the protein stability index amounted to 3.4.

Regarding GGYFKARLKFPIDYPYSEPAFRFL [P18E], the protein stability index is 2.34.

As to GGYFKARLKFPIDYPYSDPAFRFL [P18D], the protein stability index is 2.34.

GGYFKARLKFPIDYPYSLPAFRFL [P18L]: the protein stability index was found to be 2.54.

Take GGYFKARLKFPIDYPYSYPAFRFL [P18Y]: the protein stability index came to 2.48.

GGYFKARLKFPIDYPYSKPAFRFL [P18K]: the protein stability index is 3.31.

On to GGYFKARLKFPIDYPYSQPAFRFL [P18Q], for which the protein stability index is 3.79.

Turning to GGYFKARLKFPIDYPYSPPAFGFL [R22G], the protein stability index amounted to 2.78.

Consider GGYFKARLKFPIDYPYSPPAFFFL [R22F], for which the protein stability index amounted to 3.63.

As for GGYFKARLKFPIDYPYSPPAFSFL [R22S], the protein stability index is 2.8.

Turning to GGYFKARLKFPIDYPYSPPAFCFL [R22C], the protein stability index was 4.57.

Regarding GGYFKARLKFPIDYPYSPPAFIFL [R22I], the protein stability index was 2.74.

Turning to GGYFKARLKFPIDYPYSPPAFMFL [R22M], the protein stability index is 3.

Take GGYFKARLKFPIDYPYSPPAFLFL [R22L]: the protein stability index turned out to be 2.97.

Consider GGYFKAILKFPIDYPYSPPAFRFL [R7I], for which the protein stability index is 2.78.

As for GGYFKAWLKFPIDYPYSPPAFRFL [R7W], the protein stability index is 3.18.

On to GGYFKADLKFPIDYPYSPPAFRFL [R7D], for which the protein stability index was 1.96.

For the variant GGYFKAELKFPIDYPYSPPAFRFL [R7E], the protein stability index worked out at 2.77.

Turning to GGYFKAKLKFPIDYPYSPPAFRFL [R7K], the protein stability index was found to be 3.83.

As for GGYFKAMLKFPIDYPYSPPAFRFL [R7M], the protein stability index amounted to 2.51.

As for GGYFKALLKFPIDYPYSPPAFRFL [R7L], the protein stability index worked out at 2.38.

In the case of GGYFKANLKFPIDYPYSPPAFRFL [R7N], the protein stability index was found to be 2.57.

Consider GGYFKACLKFPIDYPYSPPAFRFL [R7C], for which the protein stability index was determined as 2.9.

As for GGYFKARLPFPIDYPYSPPAFRFL [K9P], the protein stability index was found to be 2.57.

With GGYFKARLWFPIDYPYSPPAFRFL [K9W], the protein stability index is 2.66.

As to GGYFKARLYFPIDYPYSPPAFRFL [K9Y], the protein stability index came out at 3.41.

On to GGYFKARLMFPIDYPYSPPAFRFL [K9M], for which the protein stability index amounted to 1.82.

For GGYFKARLSFPIDYPYSPPAFRFL [K9S], the protein stability index amounted to 3.19.

Regarding GGYFKARLLFPIDYPYSPPAFRFL [K9L], the protein stability index came to 3.67.

GGYFKARLRFPIDYPYSPPAFRFL [K9R]: the protein stability index stood at 3.6.

The record behind these values is the supplement of paper PMC10567573.
